This assay has as its target extracellular signal-regulated protein kinase 2 (purified, recombinant, activated ERK2). Nature of the assay: cell-based or functional assay.

extracellular signal-regulated protein kinase 2 (purified, recombinant, activated ERK2), sequence (P28482 2-360): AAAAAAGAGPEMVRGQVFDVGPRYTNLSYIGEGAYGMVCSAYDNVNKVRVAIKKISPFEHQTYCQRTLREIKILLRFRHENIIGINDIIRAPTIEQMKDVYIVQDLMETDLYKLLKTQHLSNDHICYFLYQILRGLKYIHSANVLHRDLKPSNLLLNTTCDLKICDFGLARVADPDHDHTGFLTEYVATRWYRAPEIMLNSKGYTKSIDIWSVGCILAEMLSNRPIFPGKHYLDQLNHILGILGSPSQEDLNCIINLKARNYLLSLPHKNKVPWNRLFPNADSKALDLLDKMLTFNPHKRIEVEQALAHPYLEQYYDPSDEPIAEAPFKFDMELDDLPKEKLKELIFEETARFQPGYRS

Regarding KQAEAVTSPR [rat TH-Ser31 peptide KQAEAVTSPR], the V/K stood at 5.

For the molecule EAIMSPRFK [type 1 human TH-Ser31 peptide EAIMSPRFK], the V/K amounted to 28.

Consider APRTPGGR [MBPtide (Thr97) …], for which the V/K was 23.

Consider YQAEAIMSPRFIGRRQ [type 1 human TH-Ser31 peptide YQAEAIMSPRFIGRRQ], for which the V/K is 80.

Regarding ATGPLSPFGRR [ERKtide], the V/K amounted to 136.
